The values that follow come from patent CN104744590A.

For assay [1], the target named is 重组血凝素蛋白 H1N1(A/California/4/2009) (Influenza A virus H1N1 (A/California/4/2009)).
The target of assay [2] is 重组血凝素蛋白 H1N1(A/California/7/2009) (Influenza A virus H1N1 (A/California/7/2009)).
The target of assay [3] is 重组血凝素蛋白 H1N1(A/New Caledonia/20/1999) (Influenza A virus H1N1 (A/New Caledonia/20/1999)).
For assay [4], the target named is 重组血凝素蛋白 H1N1(A/Ohio/UR06-0091/2007) (Influenza A virus H1N1 (A/Ohio/UR06-0091/2007)).
Assay [5] concerns the target 重组血凝素蛋白 H1N1(A/Puerto Rico/8/1934) (Influenza A virus H1N1 (A/Puerto Rico/8/1934)) (UniProt P03452).
The target of assay [6] is 重组血凝素蛋白 H1N2(A/swine/Guangxi/13/2006) (Influenza A virus H1N2 (A/swine/Guangxi/13/2006)).
Assay [7] concerns the target 重组血凝素蛋白 H1N3(A/duck/NZL/160/1976) (Influenza A virus H1N3 (A/duck/NZL/160/1976)).
For assay [8], the target named is 重组血凝素蛋白 H2N2(A/Canada/720/2005) (Influenza A virus H2N2 (A/Canada/720/2005)).
Assay [9] has as its target 重组血凝素蛋白 H6N1(A/Califomia/HKWF115/2007) (Influenza A virus H6N1 (California/HKWF115/2007 as printed)).

B1: 抗甲型H1N1猪流感病毒血凝素蛋白鼠单克隆抗体 (antibody, V domains shown)
VH: EIQLQQTGPELVKPGAPVKISCKASGYSLTDYIILWVKQSHGKSLEWIGNINPYFGTTSYNLKFKDKATLTVDKSSSTAYMELNSLTSEDSAVYYCARNDNYAMDYWGQGTSVTVSS
VL: QIVLTQSPAIMSASLGERVTMTCTASSSVSSTYLHWYQQKPGSSPKLWIYSTSNLASGVPARFSGSGSGTSYSLTISSMEAEDAATYYCHQYHRSPYTFGGGTKLEIKR
As to B1, the OD450nm值 in [1] is 2.01 OD450nm; in assay [2], 1.88 OD450nm; in [3], 0.001 OD450nm; in [4], 0.015 OD450nm; in [5], 0.005 OD450nm; in assay [6] it was 0.004 OD450nm. Also, the OD450nm值 in assay [7] worked out at 0.001 OD450nm; in [8] it was 0.002 OD450nm; in assay [9], 0.003 OD450nm.
